Measurements: US20090036382A1, “TGF-Beta Modulators and Use Thereof” (Universita' Degli Studi Di Padova, priority 2006, published 2009)

Assays:
[1] = molecular target: T1, pro TGF-β1 processing (Homo sapiens, UniProt P01137); assay: Western blot of pro TGF-β1 conversion to LAP and mature TGF-β1 in transfected HEK293T cells; type: cell-based; settings: for Intensity of the band corresponding to mature TGF-β1 / Precursor (pro TGF-β) band: HEK293T supernatant, anti-TGF-β1 Western-blot, emilin-1 cotransfected, peptide at 100 μM; for Intensity of the band corresponding to mature TGF-β1: FIG. 5A; for Precursor (pro TGF-β) band: FIG. 5A lanes 2 and 3
T1 construct: Flag; expressed in transfected cells; host or cells: HEK293T (A6); mouse embryo fibroblasts (A8)
T1 sequence (P01137 30-390): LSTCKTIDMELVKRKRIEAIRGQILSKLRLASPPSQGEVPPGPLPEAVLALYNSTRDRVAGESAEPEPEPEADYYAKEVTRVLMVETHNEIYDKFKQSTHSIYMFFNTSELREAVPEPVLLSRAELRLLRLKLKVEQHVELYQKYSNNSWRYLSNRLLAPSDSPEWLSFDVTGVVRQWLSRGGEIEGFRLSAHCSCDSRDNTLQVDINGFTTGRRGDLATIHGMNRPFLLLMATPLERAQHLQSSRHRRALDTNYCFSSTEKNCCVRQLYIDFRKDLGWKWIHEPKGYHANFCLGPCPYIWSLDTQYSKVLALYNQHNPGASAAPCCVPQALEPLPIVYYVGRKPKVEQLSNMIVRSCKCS
Description: (§1) • The construct for emilin 1 expression was engineered in pCS2 vector (Rupp R. A. et al., 1994, Genes Dev 8, 1311-1323) (for a physical map of the vector, see the site faculty.washington.edu/rtmoon/pcs2+.html) as described (Zanetti M. et al., 2004, Mol Cell Biol 24, 638-650); the vector used for proTGF-β expression in MEF and HEK293T cells is pCDNA3.1 (Invitrogen). Vectors containing the coding sequence for human pro TGF-β are described in Young and Murphy-Ullrich, 2004 (Young and Murphy-Ullrich, 2004, J Biol Chem 279, 38032-38039). The human pro TGF-β cDNA sequence is reported in the data bank (NP_000660; protein 000651). • The vector for Furin/SPC 1 expression is pCDNA3.1 (Invitrogen) • p15 and CAGA 12 promoter fragments are described in Jonk L. J. et al., 1998, J Biol Chem 273, 21145-21152 […]. • Constructs containing Flag sequences are described in Young G. D and Murphy-Ullrich J E, 2004, J Biol Chem 279, 38032-38039. • Constructs containing the Flag epitope (e.g. Flag-EMI-domain-GPI) were prepared as described in Chubet R G et al. Biotechniques 1996; 20(1):136-141 and detected by anti-Flag antibody (Kodak Inc.). • Constructs containing the GPI anchor were prepared as described in the Manual “Current Protocols in Cell Biology” Howard R. Petty Wayne State University, Detroit, Mich.; Juan S. Bonifacino, Mary Dasso, Joe B. Harford, Jennifer Lippincott-Schwartz, and Kenneth M. Yamada (eds.), Copyright C 2003 John Wiley & Sons, Inc. (GPI-anchor). In the construct Flag-EMI domain-GPI, the Flag sequence was inserted at the N-terminus after the signal peptide, while the GPI-anchor sequence was placed at the COOH-terminal end. • The construct emilin 1-KDEL was obtained by inserting the KDEL coding sequence described by Munro S., and Pelham, H. R., 1987, Cell 48, 899-907 upstream the emilin 1 STOP codon. • The construct containing the type II TGF-β receptor with HA epitope was described in Wrana J. L. et al., 1994, Nature 370, 341-347. • supplier of the drugs used: SP600125 (Calbiochem), SB431542 (Tocris). • Purified recombinant LAP and TGF-β1 proteins were purchased from (R&D Systems)
To verify whether emilin or its EMI domain inhibit TGF-β or its precursor, HEK293T cells were cotransfected with plasmids driving the expression of pro TGF-β1 (fused to the FLAG-domain, even though the antibody used were directed at LAP and TGF-β proteins) and emilin-1 (or EMI-domain). […] The anti-Flag antibody used was obtained from Kodak Inc; for the preparation of Flag constructs, see Younjg and Murphy-Ullrich (Young and Murphy-Ullrich, 2004).
As reported in the summary scheme above FIG. 5A, HEK293T cells were transfected with the plasmid encoding pro TGF-β1 (lane 1) and cotransfected with emilin-1 (lane 3) or treated with decanoyl-RVKR-CMK peptide (Decanoyl-Arg-Val-Lys-Arg-chloromethylketone, Alexis Corporation, Lausen, Switzerland) (lane 2) at a concentration of 100 μM. The peptide is an irreversible and competitive inhibitor of furin proprotein convertase and of other SPC family members (Proprotein Convertase); in addition, it inhibits pro-MMP2 dependent furin activation. The supernatant was then loaded on SDS-PAGE and detected by Western-blot with anti-TGF-β1 antibody. […] An increase of the precursor band in lanes 2 and 3 is […] to the decrease of TGF-β. Therefore it can be concluded that this assay detects an effect of emilin-1 on TGF-β1 processing that is similar to the effect of Furin inhibitors.

[2] = system: pro TGF-β1; assay: Western blot of culture medium of MEF (-/- or +/+) transfected with Flag-proTGF-β1; type: cell-based, mouse; settings: anti-Flag / anti-LAP, FIG. 5C
Experimental: In a subsequent experiment, Mouse Embryo Fibroblasts (MEF) derived from ko (−/−) or wild type (+/+) mice were transfected with a plasmid encoding Flag-proTGF-β1; the Furin inhibitor decanoyl-RVKR-CMK was added to the indicated samples. The culture medium was then subjected to western blotting with anti-Flag (FIG. 5C, upper inset) or anti-LAP (middle inset) antibody. […] To control the expression levels, western blot (in the lower inset) with an anti-β gal antibody was developed instead.

[3] = system: pro TGF-β1; assay: CAGA12-lux luciferase reporter in HEK293T cells co-transfected with pro TGF-β1 vector; type: cell-based, human
Description: as §1
(§2) To verify how emilin or the EMI domain can contrast TGF-β1 activity independently from receptor binding, HEK293T cells were transfected with a construct coding luciferase placed under control of a TGF-β activated promoter: CAGA12-lux (Jonk et al., 1998) alone or in combination with a emilin1 expression vector (500 ng) as shown in FIG. 2B. After transfection, cells were treated (black bar) or not treated (white bar) with 5 ng/ml recombinant TGF-1 (lanes 1 and 2). Column bars from 3 to 6 report luciferase expression values in experiments with cells co-transfected with the expression vector for emilin1 (or EMI-domain or emilin1ΔEMI) alone (white bars) or in combination with the vector encoding pro TGF-β1 (black bars). Values show the mean±st. dev.
As further validation of the above observations, HEK293T cells were cotransfected with expression plasmids carrying the cDNAs shown in the summary scheme above the figure, along with CAGA12-lux and CMV-lacZ constructs, and luciferase expression levels were measured.

[4] = system: pro TGF-β processing; assay: Cell-mixing experiment, responder (CAGA12-lux) and stimulator (proTGF-β) HEK293T cells; type: cell-based; settings: emilin 1 cotransfected in S cells or only in R cells; FIG. 6A
Experimental: To determine where emilin and pro TGF-β interact (whether intracellularly or extracellularly), two types of HEK293T cells, responder (R) and stimulator (S), were prepared by transfecting the CAGA12-lux plasmid in the former and of the proTGF-β coding plasmid in the latter cells. Therefore, R cells respond to TGF-β by activating the luciferase reporter gene, while S cells produce TGF-β and can stimulate the former cells only if TGF-β is secreted. To determine where emilin-1 blocks TGF-β processing, R or S cells were cotransfected with the emilin 1 coding plasmid, and this transfection is indicated with the initial +E under the corresponding column bar in FIG. 6A.
To be able to compare the results obtained under the various conditions, all cells were cotransfected also with the CMV-lacZ vector. Mock refers to cells transfected with CMV-lacZ plasmid alone. […] Therefore, the inhibition of pro TGF-β processing by emilin 1 occurs in the extracellular compartment.

[5] = system: mature TGF-β1; assay: CAGA12-lux luciferase reporter in HEK293T cells treated with recombinant TGF-β1; type: cell-based; settings: 5 ng/ml recombinant TGF-β1, expression vector 500 ng, FIG. 2B
Experimental: as §2

[6] = molecular target: T2, pro TGF-β (Homo sapiens, UniProt P01137); assay: Co-immunoprecipitation / Western blot of EMI domain or emilin1 with pro TGF-β in HEK293T cells; type: binding; settings: HEK293T cell extracts or culture medium; anti-Flag / anti-LAP IP; FIG. 4A-4C
T2 construct: expressed in transfected cells; host or cells: HEK293T
T2 sequence (P01137 30-390): as above
Description: • The construct for emilin 1 expression was engineered in pCS2 vector (Rupp R. A. et al., 1994, Genes Dev 8, 1311-1323) (for a physical map of the vector, see the site faculty.washington.edu/rtmoon/pcs2+.html) as described (Zanetti M. et al., 2004, Mol Cell Biol 24, 638-650); the vector used for proTGF-β expression in MEF and HEK293T cells is pCDNA3.1 (Invitrogen). Vectors containing the coding sequence for human pro TGF-β are described in Young and Murphy-Ullrich, 2004 (Young and Murphy-Ullrich, 2004, J Biol Chem 279, 38032-38039). […]

| Interaction with pro TGF-β (co-immunoprecipitation) [6] | Molecule | Intensity of the band corresponding to mature TGF-β1 [1] | Precursor (pro TGF-β) band [1] | pro TGF-β1 levels in culture medium [2] | Luciferase expression stimulated by transfected pro TGF-β ([3]; CAGA12-lux and CMV-lacZ, FIG. 6C) | Effect on luciferase expression induced by pro TGF-β1 ([3]; CAGA12-lux, co-transfection with pro TGF-β1 vector, FIG. 2B, 2C) | Conversion of pro TGF-β1 to LAP and mature TGF-β1 (band intensity) ([1]; HEK293T cotransfected, cell extracts anti-LAP, supernatants anti-TGF-β1, FIG. 4D) | Activation of CAGA12-lux reporter on mixing R and S cells [4] | Effect on luciferase expression induced by mature TGF-β [5] |
| --- | --- | --- | --- | --- | --- | --- | --- | --- | --- |
| – | Decanoyl-Arg-Val-Lys-Arg-chloromethylketone [decanoyl-RVKR-CMK, reference compound] | decreases | increase | results in increased pro TGF-β1 levels | – | – | – | – | – |
| co-precipitates | emilin-1: emilin family extracellular matrix protein carrying an EMI domain, GenBank NP—008977; expressed from pCS2 vector by transfection (protein) ASYPPRGFSLYTGSSGALSPGGPQAQIAPRPASRHRNWCAYVVTRTVSCVLEDGVETYVKYQPCAWGQPQCPQSIMYRRFLRPRYRVAYKTVTDMEWRCCQGYGGDDCAESPAPALGPASSTPRPLARPARPNLSGSSAGSPLSGLGGEGPGESEKVQQLEEQVQSLTKELQGLRGVLQGLSGRLAEDVQRAVETAFNGRQQPADAAARPGVHETLNEIQHQLQLLDTRVSTHDQELGHLNNHHGGSSSSGGSRAPAPASAPPGPSEELLRQLEQRLQESCSVCLAGLDGFRRQQQEDRERLRAMEKLLASVEERQRHLAGLAVGRRPPQECCSPELGRRLAELERRLDVVAGSVTVLSGRRGTELGGAAGQGGHPPGYTSLASRLSRLEDRFNSTLGPSEEQEESWPGAPGGLSHWLPAARGRLEQLGGLLANVSGELGGRLDLLEEQVAGAMQACGQLCSGAPGEQDSQVSEILSALERRVLDSEGQLRLVGSGLHTVEAAGEARQATLEGLQEVVGRLQDRVDAQDETAAEFTLRLNLTAARLGQLEGLLQAHGDEGCGACGGVQEELGRLRDGVERCSCPLLPPRGPGAGPGVGGPSRGPLDGFSVFGGSSGSALQALQGELSEVILSFSSLNDSLNELQTTVEGQGADLADLGATKDRIISEINRLQQEATEHATESEERFRGLEEGQAQAGQCPSLEGRLGRLEGVCERLDTVAGGLQGLREGLSRHVAGLWAGLRETNTTSQMQAALLEKLVGGQAGLGRRLGALNSSLQLLEDRLHQLSLKDLTGPAGEAGPPGPPGLQGPPGPAGPPGSPGKDGQEGPIGPPGPQGEQGVEGAPAAPVPQVAFSAALSLPRSEPGTVPFDRVLLNDGGYYDPETGVFTAPLAGRYLLSAVLTGHRHEKVEAVLSRSNQGVARVDSGGYEPEGLENKPVAESQPSPGTLGVFSLILPLQAGDTVCVDLVMGQLAHSEEPLTIFSGALLYGDPELEHA | decreases | increase | – | inhibits the stimulating action of transfected pro TGF-β | inhibits pro TGF-β | inhibit the conversion of pro TGF-β1 | inhibits activation of the reporter construct | does not antagonize mature TGF-β |
